The values that follow are results of earlier work, collected in paper PMC5989558.

The series addresses CD80 (Homo sapiens) (UniProt P33681).
UniProt P33681, sequence (P33681 35-242): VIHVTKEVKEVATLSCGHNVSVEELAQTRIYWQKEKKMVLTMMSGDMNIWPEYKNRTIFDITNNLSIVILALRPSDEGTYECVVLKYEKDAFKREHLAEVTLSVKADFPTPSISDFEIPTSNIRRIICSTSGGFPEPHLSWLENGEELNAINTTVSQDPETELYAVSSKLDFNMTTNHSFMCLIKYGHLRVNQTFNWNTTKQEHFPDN

Turning to CD28 (from UniProt P10747), the Kd was 20 µM.

One may read the Kd as the concentration at which binding is half-saturated.
